In test [1] the target is β-amyloid peptide (1-42) conjugated to BSA (Aβ1-42-Cys-BSA conjugate) (bovine). The test is described as follows: competitive ELISA on Aβ1-42-BSA against biotinylated Mu266 (0.3 µg/ml), first set of three experiments. In general terms: In an ELISA, binding on a coated surface is turned into a signal by an enzyme label.
Test [2] shares this target. The test is described as follows: competitive ELISA on Aβ1-42-BSA against biotinylated Mu266 (0.3 µg/ml), second set of three experiments.
For another test, the target named is Aβ 1-40 peptide (human). The test is described as follows: KinExA 3000 equilibrium analysis, 37 C, Fab with serially diluted human soluble Abeta (1-40). On the technique in general: A kinetic exclusion assay measures how much of one partner remains free in solution.
In test [3] the target is T1, β-amyloid peptide (1-42) conjugated to BSA (Aβ1-42-Cys-BSA conjugate) (bovine, maleimide-activated; Cys43 coupled to maleimide-activated bovine serum albumin).
T1 construct: Coated on ELISA plates at 10 µg/mL; also called Aβ1-42-BSA conjugate; Aβ1-42-Cys43
The test is described as follows: competitive ELISA on Aβ1-42-BSA against biotinylated Mu266 (0.3 µg/ml), first set of three experiments. As to the method:
(§1) The Aβ142-BSA conjugate was prepared by dissolving 7.5 mg of Aβ₁₋₄₂-Cys₄₃ (C-terminal cysteine Aβ₁₋₄₂, AnaSpec) in 500 μL of dimethylsulfoxide, and then immediately adding 1,500 μL of distilled water. Two (2) milligrams of maleimide-activated bovine serum albumin (Pierce) was dissolved in 200 μL of distilled water. The two solutions were combined, thoroughly mixed, and allowed to stand at room temperature for two (2) hours. A gel chromatography column was used to separate unreacted peptide from Aβ₁₋₄₂-Cys-BSA conjugate.
(§2) After washing the wells with phosphate buffered saline (PBS) containing 0.1% Tween 20 (Washing Buffer) using an ELISA plate washer, the wells were blocked by adding 300 μL of SuperBlock reagent (Pierce) per well. After 30 minutes of blocking, the wells were washed Washing Buffer and excess liquid was removed.
(§3) As a background control, 100 μl of ELISA Buffer was added. The ELISA plate was incubated at room temperature for 90 min. After washing the wells with Washing Buffer, 100 μl of 1 μg/ml HRP-conjugated streptavidin (Cat #21124, Pierce) was added to each well. […] Absorbance was read at 415 nm. The absorbances were plotted against the log of the competitor concentration, curves were fit to the data points (using Prism) and the IC50 was determined for each antibody using methods well-known in the art.

Test [4] concerns the target T1, β-amyloid peptide (1-42) conjugated to …. The test is described as follows: competitive ELISA on Aβ1-42-BSA against biotinylated Mu266 (0.3 µg/ml), second set of three experiments. The method, then:
as §1, §2, §3

The term IC50 denotes the concentration that gives 50% inhibition. A lower IC50 goes with inhibition by little substance. With Mouse monoclonal antibody 266 (Mu266), the values for the IC50 in test [1] and in test [2] were 4.7 mg/L and 3.87 mg/L, respectively.

A word on the Kd: it is the free concentration of one partner at which half of the binding sites on the other are occupied at equilibrium, for simple one-to-one binding. “m266-Fab (Fab fragment of murine monoclonal antibody 266)” came in with a Kd in the test with Aβ 1-40 peptide (human) of 0.24 nM.

B1: humanized 266 antibody (Hu266) (antibody, human IgG1, kappa, V domains shown)
VH: EVQLVESGGGLVQPGGSLRLSCAASGFTFSRYSMSWVRQAPGKGLELVAQINSVGNSTYYPDTVKGRFTISRDNAKNTLYLQMNSLRAEDTAVYYCASGDYWGQGTLVTVSS
VL: DVVMTQSPLSLPVTLGQPASISCRSSQSLIYSDGNAYLHWFLQKPGQSPRLLIYKVSNRFSGVPDRFSGSGSGTDFTLKISRVEAEDVGVYYCSQSTHVPWTFGQGTKVEIKR
notes: Mature antibody expressed from pVk-Hu266 and pVg1-Hu266 in Sp2/0 cells; also called exemplified anti-Aβ antibody
Turning to B1, the values for the IC50 in test [3] and in test [4] were 7.5 mg/L and 4 mg/L, respectively.
